The target in this assay is T1, gp100 peptide on HLA-C*06:02 (human).
T1 peptide: HRRGSRSYV
The assay is described as follows: multimer staining. The method, then: T cells (1×10⁵) were incubated for 30 minutes at 37° C. in the presence of 50 nM dasatinib (LC laboratories). The cells were then washed and incubated with 5-10 μg/ml of multimer for 30 minutes at room temperature, and R-phycoerythrin-conjugated AffiniPure Fab fragment goat anti-mouse IgG1 (Jackson ImmunoResearch Laboratories) was added for 15 minutes at 4° C. Next, the cells were washed three times and costained with an anti-CD8 mAb for 15 minutes at 4° C. Dead cells were finally discriminated using the LIVE/DEAD Fixable Dead Cell Stain kit.

B1: C*06:02/gp100190-198 TCR (TCR, V domains shown)
Valpha: KNQVEQSPQSLIILEGKNCTLQCNYTVSPFSNLRWYKQDTGRGPVSLTIMTFSENTKSNGRYTATLDADTKQSSLHITASQLSDSASYICVVRGMDSSYKLIFGSGTRLLVRP
Vbeta: DAMVIQNPRYQVTQFGKPVTLSCSQTLNHNVMYWYQQKSSQAPKLLFHYYDKDFNNEADTPDNFQSRRPNTSFCFLDIRSPGLGDAAMYLCATSSEDSSNQPQHFGDGTRLSIL
With B1, the binding result is “recognises”.

(Values after patent US20220152105A1 (published 2022).)
